In patent US20260055143A1, “HIGH AFFINITY VARIANTS OF SH2 DOMAINS” (Axoiya Inc., priority 2023, published 2026):

Target: SLTI{pTyr}AQVQKA (Homo sapiens, UniProt Q13291)
Assay: Competitive ELISA, SH2D1B variants
Type: binding

B1: SH2D1B: SH2D1B SH2 domain, SEQ ID 67 (protein, listed as Homo sapiens)
chain: YYHGRLTKQDCETLLLKEGVDGNFLLRDSESIPGVLCLCVSFKNIVYTYRIFREKHGYYRIQTAEGSPKQVFPSLKELISKFEKPNQGMVVHLLKPI
For B1, the change in affinity (superbinding grafts or the αA-2-Arg substitution) was “could not be improved further” and the change in affinity (with either the sSrc or sFes graft) was “no improvement in affinity”.
